Measured values: patent publication US20080107658A1 (AstraZeneca / MedImmune, published 2008)

What was measured:
Test in all cases: cell-based or functional assay
[1] = biological target: mouse nerve growth factor (mouse, UniProt P01139 122-241)
[2] = biological target: human nerve growth factor (beta-NGF) (human, UniProt P01138 122-241)
[3] = biological target: rat nerve growth factor (beta-NGF) (rat, UniProt P25427 122-241)
rat nerve growth factor (beta-NGF), sequence (P25427 122-241): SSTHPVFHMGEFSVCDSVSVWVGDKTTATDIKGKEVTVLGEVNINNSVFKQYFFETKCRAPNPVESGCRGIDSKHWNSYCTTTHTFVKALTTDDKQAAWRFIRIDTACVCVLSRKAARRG

mouse nerve growth factor, sequence (P01139 122-241): as the sequence (P25427 122-241) above, with G40A, K50R, P61S, D94E, A117T counted along it
human nerve growth factor (beta-NGF), sequence (P01138 122-241): as the sequence (P25427 122-241) above, with T3S, V6I, M9R, T37M, A60D, E65D, T92M, D94G, A117V, G120A counted along it

B1: 1133C11 human IgG4 (antibody, V domains shown)
VH: EVQLVQSGAEVKKPGSSVKVSCKASGGTFSTYGISWVRQAPGQGLEWIGGIIPIFDTGNSAQSFQGRVTITADESTSTAYMEVSSLRSDDTAVYYCASSSRIYDLNPSLTAYYDMDVWGQGTMVTVSS
VL: QAVLTQPSSVSTPPGQKVTISCSGSSSNIGNNYVSWYQQLPGTAPKLLIYDNNKRPSGIPDRFSGSKSGTSATLGITGLQTGDEADYYCGTWDSSLSAWVFGGGTKLTVL
IC50, FLIPR calcium mobilisation [1]: 0.28 nM | IC50, TF-1 cell proliferation [1]: 0.1 nM | IC50, FLIPR calcium mobilisation [2]: 0.45 nM | IC50, PC12 cell survival [2]: 0.53 nM | IC50, TF-1 cell proliferation [2]: 0.1 nM | IC50, FLIPR calcium mobilisation [3]: 0.3 nM | IC50, PC12 cell survival [3]: 0.42 nM | IC50, TF-1 cell proliferation [3]: 0.12 nM

B2: 1214D10 human IgG4 (antibody, V domains shown)
VH: EVQLVQSGAEAKKPGSSVKVSCKASGGTFSTYGISWVRQAPGRGLEWIGGIIPIFDTGNSAQSFQGRVAITADESTSTAYMEVSSLRSDDTAVYYCASSSRIYDAHLNHHGYYDMDVWGQGTMVTVSS
VL: QAVLTQPSSVSTPPGQKVTISCSGSSSNIGNNYVSWYQQLPGTAPKLLIYDNNKRPSGIPDRFSGSKSGTSATLGITGLQAGDEADYYCGTWDSSLSAWVFGGGTKLTVL
IC50, FLIPR calcium mobilisation [1]: 0.13 nM | IC50, FLIPR calcium mobilisation [2]: 0.29 nM | IC50, PC12 cell survival [2]: 0.35 nM | IC50, FLIPR calcium mobilisation [3]: 0.14 nM

B3: 1211G10 human IgG4 (antibody, V domains shown)
VH: EVQLVQSGAEVRKPGSSVKVSCKAYGGTFSTYGISWVRQAPGQGLEWVGGIIPIFDTRNSAQSFQGRVTITADESTSTAYMEVSSLRSDDTAVYYCASSSRIYDMVSTLIPYYDMDVWGQGTMVTVSS
VL: QAVLTQPSSVSTPPGQKVTISCSGSSSNIGNNYVSWYQQLPGTAPKLLIYDNNKRPSGIPDRFSGSKSGTSATLGITGLQTGDEADYYCGTWDSSLSAWVFGGGTKLTVL
IC50, FLIPR calcium mobilisation [1]: 0.15 nM | IC50, FLIPR calcium mobilisation [2]: 0.37 nM | IC50, PC12 cell survival [2]: 0.58 nM | IC50, FLIPR calcium mobilisation [3]: 0.16 nM

B4: 1175H8 human IgG4 (antibody, V domains shown)
VH: EVQLVQSGAEVKKPGSSVKVSCKASGGTFSTYGISWVRQAPGQRLEWIGGIIPIFDTGNSAQSFQGRVTITADESTSTAYMEVSSLRSDDTAVYYCASSSRIYDATTGLTPYYDMDVWGQGTMVTVSS
VL: QAVLTQPSSVSTPPGQKVTISCSGSSSNIGNNYVSWYQQLPGTAPKLLIYDNNKRPSGIPDRFSGSKSGTSATLGITGLRTGDEADYYCGTWDSSLSAWVFGGGTKLTVL
IC50, FLIPR calcium mobilisation [1]: 0.16 nM | IC50, FLIPR calcium mobilisation [2]: 0.37 nM | IC50, PC12 cell survival [2]: 1.1 nM | IC50, FLIPR calcium mobilisation [3]: 0.15 nM

B5: 1160E3 human IgG4 (antibody, V domains shown)
VH: EVQLVQSGAEVKKPGSSAKVSCKASGGTFSTYGISWVRQAPGQGLEWIGGIIPIFDTGNSAQSFQGRVTITADESTSTAYMEVSSLRSDDTAVYYCASSSRIYDLNPSLTAYYDMDVWGQGTMVTVSS
VL: QAVLTQPSSVSTPPGQKVTISCSGSNSNIGNNYVSWYQQLPGTAPKLLIYDNNKRPSGIPDRFSGSKSGTSATLGITGLQTGDEADYYCGTWDSSLSAWVFGGGTKLTV
IC50, FLIPR calcium mobilisation [1]: 0.12 nM | IC50, FLIPR calcium mobilisation [2]: 0.33 nM | IC50, PC12 cell survival [2]: 0.4 nM | IC50, FLIPR calcium mobilisation [3]: 0.13 nM

B6: 1155H1 human IgG4 (antibody, V domains shown)
VH: EVQLVQSGAEVKKPGSSVKVSCKASGGTFSTYGISWVRQAPGQGLEWIGGIIPIFDTGNSAQSFQGRVTITADESTSTAYMEVSSLRSDDTAVYYCASSSRIYDFHLANKGYYDMDVWGQGTMVTVSS
VL: QAVLTQPSSVSTPPGQKATISCSGSSSNIGNNYVSWYQQLPGTAPKLLIYDNNKRPSGIPDRFSGSKSGTSATLDITGLQTGDEADYYCGTWDSSLSAWVFGGGTKLTVL
IC50, FLIPR calcium mobilisation [1]: 0.18 nM | IC50, FLIPR calcium mobilisation [2]: 0.35 nM | IC50, PC12 cell survival [2]: 0.59 nM | IC50, FLIPR calcium mobilisation [3]: 0.18 nM

B7: G1165D4 human IgG4 (antibody, V domains shown)
VH: QVQLVQSGAEVKKPGSSVKVSCKASGGTFSTYGISWVRQAPGQGLEWMGGIIPIFDTGNSAQSFQGRVTITADESTSTAYMELSSLRSEDTAVYYCARSSRIYDLNPSLTAYYDMDVWGQGTMVTVSS
VL: QSVLTQPPSVSAAPGQKVTISCSGSSSNIENNYVSWYQQLPGTAPKLLIYDNNKRPSGIPDRFSGSKSGTSATLGITGLQTGDEADYYCGTWDSSLSAWVFGGGTKLTV
IC50, FLIPR calcium mobilisation [1]: 0.27 nM | IC50, FLIPR calcium mobilisation [2]: 0.32 nM | IC50, PC12 cell survival [2]: 0.86 nM | IC50, FLIPR calcium mobilisation [3]: 0.33 nM | IC50, PC12 cell survival [3]: 2.63 nM

B8: 1214A1 human IgG4 (antibody, V domains shown)
VH: EVQLVQSGAEVKKPGSSVRVSCKASGGTFSTYGISWVRQAPGQGLEWIGGIIPIFDTGNSAQSFQGRVTITADESTSTAYMEVSSLRSDDTAVYYCASSSRIYDAHLQAYYDMDVWGQGTMVTVSS
VL: QAVLTQPSSVSTPPGQKVTISCSGSSSNIGNNYVSWYQQLPGTAPKLLIYDNNKRPPGIPDRFSGSKSGTSATLGITGLQTGDEADYYCGTRDSSLSAWVFGGGTKLTVL
IC50, FLIPR calcium mobilisation [1]: 0.14 nM | IC50, FLIPR calcium mobilisation [2]: 0.26 nM | IC50, PC12 cell survival [2]: 0.52 nM | IC50, FLIPR calcium mobilisation [3]: 0.16 nM | IC50, PC12 cell survival [3]: 0.43 nM

B9: 1158A1 human IgG4 (antibody, V domains shown)
VH: EVQLVQSGAEVKKPGSSVKVSCKASGGTFSTYGISWVRQAPGQGLEWIGGIIPIFGTGNSAQSFQGRVTITADESTSTAYMEVSSLRSDDTAVYYCASSSRIYDHHNHVGGYYDMDVWGQGTMVTVSS
VL: QAVLTQPSSVSTPPGQKVTISCSGSSSNIGNNYASWYQQLPGTAPKLLIYDNNKRPSGIPDRFSGSKSGTSATLGITGLQTGDEADYYCGTWDGSLSAWVFGGGTKLTVL
IC50, FLIPR calcium mobilisation [1]: 0.11 nM | IC50, FLIPR calcium mobilisation [2]: 0.34 nM | IC50, PC12 cell survival [2]: 0.48 nM | IC50, FLIPR calcium mobilisation [3]: 0.12 nM

B10: 1165D4 human IgG4 (antibody, V domains shown)
VH: EVQLVQSGAEVKKPGSSVKVSCKASGGTFSTYGISWVRQAPGQGLEWIGGIIPIFDTGNSAQSFQGRVTITADESTSTAYMEVSSLRSDDTAVYYCASSSRIYDLNPSLTAYYDMDVWGQGTMVTVSS
VL: QAVLTQPSSVSTPPGQKVTISCSGSSSNIENNYVSWYQQLPGTAPKLLIYDNNKRPSGIPDRFSGSKSGTSATLGITGLQTGDEADYYCGTWDSSLSAWVFGGGTKLTVL
IC50, FLIPR calcium mobilisation [1]: 0.16 nM | IC50, FLIPR calcium mobilisation [2]: 0.26 nM | IC50, PC12 cell survival [2]: 0.41 nM | IC50, FLIPR calcium mobilisation [3]: 0.15 nM | IC50, PC12 cell survival [3]: 0.41 nM

B11: 1152H5 human IgG4 (antibody, V domains shown)
VH: EVQLVQSGAEVKKPGSSVKVSCKASGGTFSTYGISWVRQAPGQGLVWIGGIIPIFDTGNSAQSFQGRVTITADESTSTAYMEVSSLRSDDTAVYYCASSSRIYDMISSLQPYYDMDVWGQGTMVTVSS
VL: QAVLTQPSSVSTPPGQKATISCSGSSSNIGNNYVSWYQQLPGTAPKLLIYDNNKRPSGIPDRFSGSKSGTSATLGITGLQTGDEADYYCGTWDSSLSAWVFGGGTKLTVL
IC50, FLIPR calcium mobilisation [1]: 0.14 nM | IC50, TF-1 cell proliferation [1]: 0.07 nM | IC50, FLIPR calcium mobilisation [2]: 0.22 nM | IC50, PC12 cell survival [2]: 0.4 nM | IC50, TF-1 cell proliferation [2]: 0.26 nM | IC50, FLIPR calcium mobilisation [3]: 0.21 nM | IC50, PC12 cell survival [3]: 0.38 nM | IC50, TF-1 cell proliferation [3]: 0.08 nM
